# Test results taken from article PMC9249733 (Nature Communications, 2022).
# Where a chain is given by its changes, count along the chain named.
# B1: emibetuzumab (wild type), soluble IgG1 (antibody, V domains shown)
# VH: QVQLVQSGAEVKKPGASVKVSCKASGYTFTDYYMHWVRQAPGQGLEWMGRVNPNRRGTTYNQKFEGRVTMTTDTSTSTAYMELRSLRSDDTAVYYCARANWLDYWGQGTTVTVSS
# VL: DIQMTQSPSSLSASVGDRVTITCSVSSSVSSIYLHWYQQKPGKAPKLLIYSTSNLASGVPSRFSGSGSGTDFTLTISSLQPEDFATYYCQVYSGYPLTFGGGTKVEIK
# B2: EM1, emibetuzumab variant, soluble IgG1 (antibody, V domains shown)
# VH: B1 VH with R55G, A99S, W101L, Y104D
# VL: B1 VL
# B3: EM2, emibetuzumab variant, soluble IgG1 (antibody, V domains shown)
# VH: B1 VH with R55G, A99S, W101L, D103E, Y104D
# VL: B1 VL
# Tests used:
# [1] = target: T1, biotinylated hepatocyte growth factor receptor (HGFR) (Homo sapiens (assumed; species not …, UniProt P08581, biotin); assay: flow cytometry of antibody-coated beads; IgG (0.076 ug/mL) captured on Protein A Dynabeads overnight; biotinylated HGFR in PBSB at a range of concentrations at 10x molar excess, 3 h, room temperature; detected with streptavidin-AF647; median fluorescence; settings: both partners purified
# T1 construct: hepatocyte growth factor receptor (c-Met, tyrosine-protein kinase Met); bought biotinylated protein; The library sorting and the scFab measurements on yeast used another construct (extracellular domain as Fc fusion, Acro Biosciences MET-H5256); also called c-Met; tyrosine-protein kinase Met; source: bought: Sino Biological 10692-H27H-B
# [2] = target: T1, biotinylated hepatocyte growth factor …; assay: flow cytometry of antibody-coated beads; single point; IgG (15 ug/mL) captured on Protein A Dynabeads overnight at 4 C; 1 nM biotinylated HGFR or 0.1 mg/mL biotinylated ovalbumin in PBSB, 3 h, room temperature; streptavidin-AF647; scores normalised between emibetuzumab (high) and elotuzumab (low); settings: both partners purified
# T1 sequence (P08581 25-932): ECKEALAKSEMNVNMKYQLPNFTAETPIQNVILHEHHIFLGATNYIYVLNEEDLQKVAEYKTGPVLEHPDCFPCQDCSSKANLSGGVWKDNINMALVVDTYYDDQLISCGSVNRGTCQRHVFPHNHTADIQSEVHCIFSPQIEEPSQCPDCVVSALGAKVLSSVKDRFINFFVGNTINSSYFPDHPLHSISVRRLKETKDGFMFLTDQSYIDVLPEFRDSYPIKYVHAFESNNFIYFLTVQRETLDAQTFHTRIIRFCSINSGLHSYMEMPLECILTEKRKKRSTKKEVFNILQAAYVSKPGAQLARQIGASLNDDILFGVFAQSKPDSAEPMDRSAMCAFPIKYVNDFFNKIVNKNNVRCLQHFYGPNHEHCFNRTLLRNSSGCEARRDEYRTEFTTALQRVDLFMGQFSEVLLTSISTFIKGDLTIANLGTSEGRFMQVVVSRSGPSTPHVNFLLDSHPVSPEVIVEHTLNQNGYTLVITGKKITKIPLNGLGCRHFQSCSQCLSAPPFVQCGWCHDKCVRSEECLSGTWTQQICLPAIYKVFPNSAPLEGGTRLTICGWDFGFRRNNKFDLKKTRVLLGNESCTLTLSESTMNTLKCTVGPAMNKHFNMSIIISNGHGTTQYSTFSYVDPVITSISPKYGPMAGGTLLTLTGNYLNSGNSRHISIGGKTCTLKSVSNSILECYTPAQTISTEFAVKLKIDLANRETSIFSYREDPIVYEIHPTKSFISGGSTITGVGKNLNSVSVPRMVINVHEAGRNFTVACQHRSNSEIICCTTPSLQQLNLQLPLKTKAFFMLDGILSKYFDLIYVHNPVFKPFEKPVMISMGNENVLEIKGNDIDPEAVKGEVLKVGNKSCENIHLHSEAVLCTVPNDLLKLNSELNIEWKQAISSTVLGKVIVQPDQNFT
binder,measurement,setting,value
B1,EC50,[1],4.4 nM
B2,EC50,[1],2.6 nM
same,antigen binding at 1 nM HGFR relative to wild type,[2],1.2 x of wild type
B3,EC50,[1],2.4 nM
same,antigen binding at 1 nM HGFR relative to wild type,[2],1.28 x of wild type
